{"source": "paper doi:10.1101/2025.11.05.686883", "about": "(bioRxiv, 2025)", "key": {"[1]": {"molecular_target": "T1, HCV-1 sE1E2.Cut1+2.SPYΔN-His6 (Hepatitis C virus genotype 1a, isolate …, UniProt P26664, stabilised)", "test": "negative-stain electron microscopy"}, "[2]": {"molecular_target": "HCV-1 E1E2 (Hepatitis C virus genotype 1a, isolate …, UniProt P26664, strain)", "test": "ELISA"}, "[3]": {"molecular_target": "T1, HCV-1 sE1E2.Cut1+2.SPYΔN-His6", "test": "BLI"}, "[4]": {"molecular_target": "T1, HCV-1 sE1E2.Cut1+2.SPYΔN-His6", "test": "BLI", "remark": "listed apart in the source"}, "[5]": {"molecular_target": "T2, H77 E1E2, wild type (Hepatitis C virus genotype 1a, isolate …)", "test": "ELISA"}, "[6]": {"molecular_target": "T2, H77 E1E2, wild type", "test": "ELISA", "remark": "listed apart in the source"}}, "note": "Read-outs that look alike come from different tables or passages of the source."}
{"binder": "K595 Fab (Fab, V domains shown) VH: EVQLLESGGGLVQPGGSLRLSCAASGFTFSNYVMTWARQAPGKGLEWVSSISDSGGNADYAHSVRGRFTISRDNSKNTLFLHMNSLRVEDTAVYHCAKALIAPGSLFRDQLLNWFDFWGQGTRVTVSS VL: DIQMTQSPSTLSASVGDRVTITCRASQSIGNWLAWYQQKPGKAPKLLIYQASTLKSGVPSRFSGSGSGTEFSLTISSLQPDDLATYFCQQYNGSPLTFAGGTKVEIK", "values": [{"measurement": "binding result", "setting": "[1]", "result": "binds"}]}
{"binder": "K595 (antibody) (antibody, V domains shown) VH: EVQLLESGGGLVQPGGSLRLSCAASGFTFSNYVMTWARQAPGKGLEWVSSISDSGGNADYAHSVRGRFTISRDNSKNTLFLHMNSLRVEDTAVYHCAKALIAPGSLFRDQLLNWFDFWGQGTRVTVSS VL: DIQMTQSPSTLSASVGDRVTITCRASQSIGNWLAWYQQKPGKAPKLLIYQASTLKSGVPSRFSGSGSGTEFSLTISSLQPDDLATYFCQQYNGSPLTFAGGTKVEIK", "values": [{"measurement": "binding result", "setting": "[2]", "result": "binds"}]}
{"binder": "AR4A Fab (Fab, V domains shown) VH: VQLLEQSGPEVKKPGDSLRISCKMSGDSLVTTWIGWVRQKPGQGLEWMGIINPGDSSTNIYPGDSATRYGPSFQGQVTISIDKSTSTAYLQWNNVKASDTGIYYCARHVPVPISGTFLWREREMHDFGYFDDWGQGTLVIVSS VL: ELTLTQSPGTLSLSPGERATLSCRASQSVSNNYLAWYQQKPGQAPRLLIYGASSRATGIPDRFSGSGSGTGFTLIISRLEPEDFAVYYCQQYGSSSITFGQGTRLEIK", "values": [{"measurement": "binding result", "setting": "[1]", "result": "binds"}]}
{"binder": "AR4A (IgG) (antibody, V domains shown) VH: VQLLEQSGPEVKKPGDSLRISCKMSGDSLVTTWIGWVRQKPGQGLEWMGIINPGDSSTNIYPGDSATRYGPSFQGQVTISIDKSTSTAYLQWNNVKASDTGIYYCARHVPVPISGTFLWREREMHDFGYFDDWGQGTLVIVSS VL: ELTLTQSPGTLSLSPGERATLSCRASQSVSNNYLAWYQQKPGQAPRLLIYGASSRATGIPDRFSGSGSGTGFTLIISRLEPEDFAVYYCQQYGSSSITFGQGTRLEIK", "values": [{"measurement": "binding result", "setting": "[2]", "result": "binds"}, {"measurement": "binding result", "setting": "[3]", "result": "binds"}]}
{"binder": "RM3-26 (IgG) (antibody, V domains shown) VH: QLQLQESGPGLVKPSETLSLTCIVSGGSISGYSWNWIRQPPGKGLEWIGNIFSGGDDANYNPSLKSRVTLSVDTSKNHFSLRLSSVTAADTAVYYCARHSAGFITGRYFELWGQGALVTVSS VL: DIQMTQSPSSLSASLGDRVTITCRANQDISSSLAWYQQKPGKAPKPLIYYASNLESGVPSRFRGSGSGTEFTLTISSLQSEDFAVYYCQQYNSDPLTFGGGTKVEIK", "values": [{"measurement": "binding result", "setting": "[4]", "result": "binds"}]}
{"binder": "RM3-26 variant, heavy chain CDRH3 R100c to alanine, wild-type light chain (antibody, V domains shown) VH: QLQLQESGPGLVKPSETLSLTCIVSGGSISGYSWNWIRQPPGKGLEWIGNIFSGGDDANYNPSLKSRVTLSVDTSKNHFSLRLSSVTAADTAVYYCARHSAGFITGAYFELWGQGALVTVSS VL: DIQMTQSPSSLSASLGDRVTITCRANQDISSSLAWYQQKPGKAPKPLIYYASNLESGVPSRFRGSGSGTEFTLTISSLQSEDFAVYYCQQYNSDPLTFGGGTKVEIK", "values": [{"measurement": "binding result", "setting": "[5]", "result": "binds"}]}
{"binder": "RM3-26 variant, heavy chain CDRH1 Y32 to alanine, wild-type light chain (antibody, V domains shown) VH: QLQLQESGPGLVKPSETLSLTCIVSGGSISGASWNWIRQPPGKGLEWIGNIFSGGDDANYNPSLKSRVTLSVDTSKNHFSLRLSSVTAADTAVYYCARHSAGFITGRYFELWGQGALVTVSS VL: DIQMTQSPSSLSASLGDRVTITCRANQDISSSLAWYQQKPGKAPKPLIYYASNLESGVPSRFRGSGSGTEFTLTISSLQSEDFAVYYCQQYNSDPLTFGGGTKVEIK", "values": [{"measurement": "binding result", "setting": "[5]", "result": "binds"}]}
{"binder": "RM3-26 variant, light chain CDRL2 Y50 to alanine, wild-type heavy chain (antibody, V domains shown) VH: QLQLQESGPGLVKPSETLSLTCIVSGGSISGYSWNWIRQPPGKGLEWIGNIFSGGDDANYNPSLKSRVTLSVDTSKNHFSLRLSSVTAADTAVYYCARHSAGFITGRYFELWGQGALVTVSS VL: DIQMTQSPSSLSASLGDRVTITCRANQDISSSLAWYQQKPGKAPKPLIYAASNLESGVPSRFRGSGSGTEFTLTISSLQSEDFAVYYCQQYNSDPLTFGGGTKVEIK", "values": [{"measurement": "binding result", "setting": "[5]", "result": "binds"}]}
{"binder": "RM3-26 variant, heavy chain CDRH3 T100a to alanine, wild-type light chain (antibody, V domains shown) VH: QLQLQESGPGLVKPSETLSLTCIVSGGSISGYSWNWIRQPPGKGLEWIGNIFSGGDDANYNPSLKSRVTLSVDTSKNHFSLRLSSVTAADTAVYYCARHSAGFIAGRYFELWGQGALVTVSS VL: DIQMTQSPSSLSASLGDRVTITCRANQDISSSLAWYQQKPGKAPKPLIYYASNLESGVPSRFRGSGSGTEFTLTISSLQSEDFAVYYCQQYNSDPLTFGGGTKVEIK", "values": [{"measurement": "binding result", "setting": "[5]", "result": "no binding (tested: 1 µg/mL (methods))"}]}
{"binder": "RM3-26 variant, light chain CDRL3 Y91 to alanine, wild-type heavy chain (antibody, V domains shown) VH: QLQLQESGPGLVKPSETLSLTCIVSGGSISGYSWNWIRQPPGKGLEWIGNIFSGGDDANYNPSLKSRVTLSVDTSKNHFSLRLSSVTAADTAVYYCARHSAGFITGRYFELWGQGALVTVSS VL: DIQMTQSPSSLSASLGDRVTITCRANQDISSSLAWYQQKPGKAPKPLIYYASNLESGVPSRFRGSGSGTEFTLTISSLQSEDFAVYYCQQANSDPLTFGGGTKVEIK", "values": [{"measurement": "binding result", "setting": "[5]", "result": "binds"}]}
{"binder": "RM3-26 variant, heavy chain CDRH3 Y100d to alanine, wild-type light chain (antibody, V domains shown) VH: QLQLQESGPGLVKPSETLSLTCIVSGGSISGYSWNWIRQPPGKGLEWIGNIFSGGDDANYNPSLKSRVTLSVDTSKNHFSLRLSSVTAADTAVYYCARHSAGFITGRAFELWGQGALVTVSS VL: DIQMTQSPSSLSASLGDRVTITCRANQDISSSLAWYQQKPGKAPKPLIYYASNLESGVPSRFRGSGSGTEFTLTISSLQSEDFAVYYCQQYNSDPLTFGGGTKVEIK", "values": [{"measurement": "binding result", "setting": "[5]", "result": "no binding (tested: 1 µg/mL (methods))"}]}
{"binder": "K400 Fab (Fab, V domains shown) VH: EVQLVQSGAEVKTPGASVRVSCTASGDTFTNHDIHWVRQAPGQGLEWMGGMNADSGKTAYAQKFQGRVSMTINTPTNTAYMDLSSLRSEDTALYYCARGDGLDFTLFGVAHYSYYNGVGVWGHGTTITVSS VL: EIVMTQSPLALPVTPGEPASIFCKSSHSLLHYNGYTYLDWYLQKPGQSPQLLIYLGSNRASGVPDRFSGSGSGTEFTLKISRVEAEDVGVYYCMQALQTPITFGQGTRLEIK", "values": [{"measurement": "binding result", "setting": "[1]", "result": "binds"}]}
{"binder": "K400 (antibody) (antibody, V domains shown) VH: EVQLVQSGAEVKTPGASVRVSCTASGDTFTNHDIHWVRQAPGQGLEWMGGMNADSGKTAYAQKFQGRVSMTINTPTNTAYMDLSSLRSEDTALYYCARGDGLDFTLFGVAHYSYYNGVGVWGHGTTITVSS VL: EIVMTQSPLALPVTPGEPASIFCKSSHSLLHYNGYTYLDWYLQKPGQSPQLLIYLGSNRASGVPDRFSGSGSGTEFTLKISRVEAEDVGVYYCMQALQTPITFGQGTRLEIK", "values": [{"measurement": "binding result", "setting": "[6]", "result": "binds"}, {"measurement": "binding result", "setting": "[2]", "result": "binds"}]}
